From article PMC13123425, “A mutant complement factor H (W1183R) enhances proteolytic cleavage of von Willebrand factor by ADAMTS-13 under shear” (Journal of thrombosis and haemostasis : JTH, 2025)

Target: purified human recombinant von Willebrand factor (multimeric) (human, UniProt P04275 764-2813)
Assay: cell-based or functional assay

- cleavage product (~350 kD band) of multimeric VWF by recombinant ADAMTS-13 under vortexing-induced shear, with 0–2 μM W1183R-CFH: ~2 fold
B1: human recombinant W1183R complement factor H (natural protein, UniProt P08603 19-1231, looked up)
chain: EDCNELPPRRNTEILTGSWSDQTYPEGTQAIYKCRPGYRSLGNVIMVCRKGEWVALNPLRKCQKRPCGHPGDTPFGTFTLTGGNVFEYGVKAVYTCNEGYQLLGEINYRECDTDGWTNDIPICEVVKCLPVTAPENGKIVSSAMEPDREYHFGQAVRFVCNSGYKIEGDEEMHCSDDGFWSKEKPKCVEISCKSPDVINGSPISQKIIYKENERFQYKCNMGYEYSERGDAVCTESGWRPLPSCEEKSCDNPYIPNGDYSPLRIKHRTGDEITYQCRNGFYPATRGNTAKCTSTGWIPAPRCTLKPCDYPDIKHGGLYHENMRRPYFPVAVGKYYSYYCDEHFETPSGSYWDHIHCTQDGWSPAVPCLRKCYFPYLENGYNQNYGRKFVQGKSIDVACHPGYALPKAQTTVTCMENGWSPTPRCIRVKTCSKSSIDIENGFISESQYTYALKEKAKYQCKLGYVTADGETSGSITCGKDGWSAQPTCIKSCDIPVFMNARTKNDFTWFKLNDTLDYECHDGYESNTGSTTGSIVCGYNGWSDLPICYERECELPKIDVHLVPDRKKDQYKVGEVLKFSCKPGFTIVGPNSVQCYHFGLSPDLPICKEQVQSCGPPPELLNGNVKEKTKEEYGHSEVVEYYCNPRFLMKGPNKIQCVDGEWTTLPVCIVEESTCGDIPELEHGWAQLSSPPYYYGDSVEFNCSESFTMIGHRSITCIHGVWTQLPQCVAIDKLKKCKSSNLIILEEHLKNKKEFDHNSNIRYRCRGKEGWIHTVCINGRWDPEVNCSMAQIQLCPPPPQIPNSHNMTTTLNYRDGEKVSVLCQENYLIQEGEEITCKDGRWQSIPLCVEKIPCSQPPQIEHGTINSSRSSQESYAHGTKLSYTCEGGFRISEENETTCYMGKWSSPPQCEGLPCKSPPEISHGVVAHMSDSYQYGEEVTYKCFEGFGIDGPAIAKCLGEKWSHPPSCIKTDCLSLPSFENAIPMGEKKDVYKAGEQVTYTCATYYKMDGASNVTCINSRWTGRPTCRDTSCVNPPTVQNAYIVSRQMSKYPSGERVRYQCRSPYEMFGDEEVMCLNGNWTEPPQCKDSTGKCGPPPPIDNGDITSFPLSVYAPASSVEYQCQNLYQLEGNKRITCRNGQWSEPPKCLHPCVISREIMENYNIALRRTAKQKLYSRTGESVEFVCKRGYRLSSRSHTLRTTCWDGKLEYPTCAKR
